Assay results as given in patent US20250011413A1 (MCMASTER UNIVERSITY, published 2025).

Key:
[1] = biological target: T1, Human PF4 (CXCL4), biotinylated, without heparin (human, UniProt P02776 32-101, biotinylated with EZ-link-Sulfo-NHS-LC-Biotin (sites not given)); assay: BLI (Octet), biotinylated PF4 without heparin on streptavidin sensors, 1:1 model; scFv at 0.25 µg/mL (response near baseline, software limit value)
T1 construct: Immobilised on streptavidin biosensors for BLI; also called PF4 alone; platelet factor 4
T1 sequence: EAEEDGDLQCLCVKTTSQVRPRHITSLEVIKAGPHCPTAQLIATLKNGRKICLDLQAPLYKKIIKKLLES
Method: (§1) All data was analyzed based on a 1:1 homogenous ligand binding model using Octet® User Software version 3.1.
(§2) The Octet-QK Red 96 (FortéBio, Menlo Park, CA) instrumentation was used to conduct all BLI experiments. A 96-well microtiter plate (black, flat-bottom) was used to hold 200 μL per well of either sample or buffer. Pre-coated streptavidin biosensor tips (FortéBio) were hydrated in phosphate buffered saline (PBS) containing 1% bovine serum albumin (BSA, Sigma-Aldrich) before performing all kinetic assays. Each step was performed at an operating temperature of 23° C. with agitation at 1000 rpm. Streptavidin tips were first equilibrated in PBS+1% BSA to establish a baseline. […] The PF4-coated tips were then dipped into PBS+1% BSA for 13 minutes to re-establish a baseline. Tips were then incubated in an analyte solution containing half-fold dilutions of wildtype scFv (4.0, 2.0, 1.0, 0.5, 0.25 μg/mL in PBS+1% BSA) for 10 minutes to measure association. For mutant scFv association, tips were incubated in an analyte solution containing 200 μL of each mutant and wildtype scFv at a final concentration of 1 μg/mL in PBS+1% BSA. […] The following negative controls included in these kinetic experiments were also measured: 200 μL of buffer to replace both the antigen and scFv and 200 μL buffer replacing scFv only. […]

[2] = biological target: T2, PF4/heparin complex (human PF4 complexed with heparin) (human, UniProt P02776 32-101); assay: BLI (Octet), biotinylated PF4/heparin on streptavidin sensors, 1:1 model; scFv at 4.0 µg/mL
T2 construct: Multimeric complex of PF4 with heparin (not a protein); In the EIAs: PF4 captured on biotinylated heparin on streptavidin plates; In the SRA: platelets with 0.2 U/mL heparin; also called PF4 and heparin complexes
T2 sequence: T1 sequence
Method: (§3) The Octet-QK Red 96 (FortéBio, Menlo Park, CA) instrumentation was used to conduct all BLI experiments. A 96-well microtiter plate (black, flat-bottom) was used to hold 200 μL per well of either sample or buffer. Pre-coated streptavidin biosensor tips (FortéBio) were hydrated in phosphate buffered saline (PBS) containing 1% bovine serum albumin (BSA, Sigma-Aldrich) before performing all kinetic assays. Each step was performed at an operating temperature of 23° C. with agitation at 1000 rpm. Streptavidin tips were first equilibrated in PBS+1% BSA to establish a baseline. […] The PF4-coated tips were then dipped into PBS+1% BSA for 13 minutes to re-establish a baseline. Tips were then incubated in an analyte solution containing half-fold dilutions of wildtype scFv (4.0, 2.0, 1.0, 0.5, 0.25 μg/mL in PBS+1% BSA) for 10 minutes to measure association. For mutant scFv association, tips were incubated in an analyte solution containing 200 μL of each mutant and wildtype scFv at a final concentration of 1 μg/mL in PBS+1% BSA. Antibody dissociation steps were performed by dipping sensors in wells containing PBS+1% BSA for 56 minutes. The following negative controls included in these kinetic experiments were also measured: 200 μL of buffer to replace both the antigen and scFv and 200 μL buffer replacing scFv only. Each experiment was performed with PF4 or with PF4/heparin as the immobilized antigen.
(§4) BLI experiments were performed to evaluate binding responses and affinities of wildtype and mutant scFv. Biotinylated PF4 alone or complexed with heparin was immobilized on streptavidin biosensors and used to capture wildtype scFv. Half-fold serial dilutions of wildtype scFv ranging from 0.25 μg/mL to 4 μg/mL were used to determine the optimal concentrations for future experiments PF4 (PF4 FIG. 3; PF4/heparin FIG. 4).

[3] = biological target: T2, PF4/heparin complex (human PF4 …); assay: BLI (Octet), biotinylated PF4/heparin on streptavidin sensors, 1:1 model; scFv at 0.25 µg/mL (response near baseline)
Method: as §3, with “antigen. […]” for “antigen.”

[4] = biological target: T1, Human PF4 (CXCL4), biotinylated, …; assay: BLI (Octet), biotinylated PF4 without heparin on streptavidin sensors, 1:1 model; scFv at 2.0 µg/mL
Method: as §3, §4

[5] = biological target: T1, Human PF4 (CXCL4), biotinylated, …; assay: BLI (Octet), biotinylated PF4 without heparin on streptavidin sensors, 1:1 model; scFv at 4.0 µg/mL
Method: as §3, §4

[6] = biological target: T1, Human PF4 (CXCL4), biotinylated, …; assay: BLI (Octet), biotinylated PF4 without heparin on streptavidin sensors, 1:1 model; scFv at 1.0 µg/mL
Method: as §3, §4

[7] = biological target: T2, PF4/heparin complex (human PF4 …); assay: BLI (Octet), biotinylated PF4/heparin on streptavidin sensors, 1:1 model; scFv at 1.0 µg/mL
Method: as §3, §4

[8] = biological target: T1, Human PF4 (CXCL4), biotinylated, …; assay: BLI (Octet), biotinylated PF4 without heparin on streptavidin sensors, 1:1 model; scFv at 0.25 µg/mL (response near baseline)
Method: as §1, §2

[9] = biological target: T2, PF4/heparin complex (human PF4 …); assay: BLI (Octet), biotinylated PF4/heparin on streptavidin sensors, 1:1 model; scFv at 0.5 µg/mL (response near baseline)
Method: as §3, with “antigen. […]” for “antigen.”

[10] = biological target: T2, PF4/heparin complex (human PF4 …); assay: BLI (Octet), biotinylated PF4/heparin on streptavidin sensors, 1:1 model; scFv at 0.25 µg/mL (response near baseline, software limit value)
Method: as §3, with “antigen. […]” for “antigen.”

[11] = biological target: T2, PF4/heparin complex (human PF4 …); assay: BLI (Octet), biotinylated PF4/heparin on streptavidin sensors, 1:1 model; scFv at 2.0 µg/mL
Method: as §3, §4

- Kd [1]: < 0.001 nM
- Kd [2]: 39.3 nM
- koff [2]: 0.000871 s⁻¹
- kon [2]: 22200 M⁻¹ s⁻¹
- koff [3]: 0.00042 s⁻¹
- Kd [4]: 9.59 nM
- koff [4]: 0.000515 s⁻¹
- kon [4]: 53800 M⁻¹ s⁻¹
- Kd [5]: 24.1 nM
- koff [5]: 0.000596 s⁻¹
- kon [5]: 24800 M⁻¹ s⁻¹
- Kd [6]: 5.71 nM
- koff [6]: 0.000853 s⁻¹
- kon [6]: 149000 M⁻¹ s⁻¹
- Kd [7]: 0.961 nM
- koff [7]: 0.000264 s⁻¹
- kon [7]: 274000 M⁻¹ s⁻¹
- koff [8]: 0.021 s⁻¹
- koff [9]: 0.00504 s⁻¹
- Kd [10]: < 0.001 nM
- Kd [11]: 9.18 nM
- koff [11]: 0.000571 s⁻¹
- kon [11]: 62100 M⁻¹ s⁻¹
B1: Wildtype scFv (KKO-derived single chain variable fragment) (scFv)
scFv: DIQMIQSQKFMSTSVGDRVTVTCKASQNVGTNVAWYQQKPGQSPNALIYSASYRYSGVPDRFTGSGSGTDFTLTITNVQSEDLADYFCQQYNSYPLTFGTGTKLDLKGGGGSGGGGSGGGGSVQLQQSGAELVKPGASVKLSCKASGYTFTNYFIYWVKQRPGQGLEWIGEINPRNGDTDFNEKFESRATLTVDKSSSTAYMQLSSLTSEDSAIYYCTRSPYGNNYGFTYWGQGTLVTVSA
notes: VL-(G4S)3 linker-VH; expressed in E. coli BL21 from pADL-22c, purified on Ni-NTA as histidine-tagged scFv, about 28 kDa; also called WT; KKO-scFv; not shown: histidine tag from the pADL-22c vector
